The sequences below were run on Escherichia coli TOP10 (assay: shrunken log2 fold change of peptide-encoding DNA abundance (4.5 h post-induction vs induction); higher = less antimicrobial activity (less host growth inhibition)). Details: time post-induction: 4.5 h; library: site-saturation at positions 5, 18, 19, 20.
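Note: peptides expressed intracellularly from a pBAD plasmid library in pooled LB shake-flask culture, induced with 0.3% L-arabinose, DNA abundance read by NGS, three biological replicates, DESeq2 with apeglm shrinkage.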

Sequence	shrunken log2 fold change
RRIRTRPPRLPRPRPRPSTVPRP	0.0213
RRIRQRPPRLPRPRPRPYWNPRP	-1.21
RRIRMRPPRLPRPRPRPPGWPRP	1.25
RRIRGRPPRLPRPRPRPVDYPRP	-0.0159
RRIRARPPRLPRPRPRPGKTPRP	0.312
RRIRHRPPRLPRPRPRPCMHPRP	-0.38
RRIRQRPPRLPRPRPRPFLRPRP	-0.0193
RRIRERPPRLPRPRPRPKSRPRP	0.0203
RRIRCRPPRLPRPRPRPEVVPRP	0.332
RRIRDRPPRLPRPRPRPRWDPRP	0.196
RRIRRRPPRLPRPRPRPDMIPRP	-0.0332
RRIRNRPPRLPRPRPRPERAPRP	0.362
RRIRLRPPRLPRPRPRPSSTPRP	-0.278
RRIRKRPPRLPRPRPRPWLFPRP	0.202
RRIRQRPPRLPRPRPRPHDMPRP	-0.364
RRIRIRPPRLPRPRPRPSFVPRP	-0.509
RRIRARPPRLPRPRPRPTELPRP	0.595
RRIRSRPPRLPRPRPRPQFKPRP	-0.239
RRIRFRPPRLPRPRPRPLNEPRP	-0.226
RRIRCRPPRLPRPRPRPQHKPRP	-0.543

Sequence	shrunken log2 fold change
RRIRWRPPRLPRPRPRPGHTPRP	0.0581
RRIRERPPRLPRPRPRPESWPRP	0.343
RRIRSRPPRLPRPRPRPVMFPRP	-0.118
RRIRLRPPRLPRPRPRPYNIPRP	-1.31
RRIRWRPPRLPRPRPRPWPMPRP	-0.0421
RRIRLRPPRLPRPRPRPPSYPRP	0.119
RRIRMRPPRLPRPRPRPNRAPRP	0.239
RRIRERPPRLPRPRPRPSEYPRP	-0.27
RRIRCRPPRLPRPRPRPVIEPRP	-0.141
RRIRTRPPRLPRPRPRPTEPPRP	0.045
RRIRTRPPRLPRPRPRPCPTPRP	0.0552
RRIRWRPPRLPRPRPRPVGQPRP	0.413
RRIRGRPPRLPRPRPRPNLSPRP	0.477
RRIRNRPPRLPRPRPRPPPYPRP	0.534
RRIRKRPPRLPRPRPRPPFDPRP	0.586
RRIRQRPPRLPRPRPRPTEFPRP	-0.113
RRIRCRPPRLPRPRPRPSEGPRP	0.141
RRIRTRPPRLPRPRPRPSDQPRP	-0.183
RRIRTRPPRLPRPRPRPPSGPRP	0.467
RRIRTRPPRLPRPRPRPVDDPRP	-0.018

Sequence	shrunken log2 fold change
RRIRVRPPRLPRPRPRPACPPRP	0.311
RRIRPRPPRLPRPRPRPLSAPRP	0.281
RRIRGRPPRLPRPRPRPIRKPRP	0.124
RRIRPRPPRLPRPRPRPNMQPRP	-0.313
RRIRWRPPRLPRPRPRPWLPPRP	-0.188
RRIRHRPPRLPRPRPRPPWTPRP	-0.131
RRIRHRPPRLPRPRPRPHNRPRP	-0.0976
RRIRDRPPRLPRPRPRPTEMPRP	0.367
RRIRLRPPRLPRPRPRPDRSPRP	-0.0286
RRIRVRPPRLPRPRPRPWVEPRP	-0.0944
RRIRQRPPRLPRPRPRPDYDPRP	0.003
RRIRDRPPRLPRPRPRPSQFPRP	-0.181
RRIRGRPPRLPRPRPRPLVEPRP	1.2
RRIRTRPPRLPRPRPRPRPHPRP	0.296
RRIRPRPPRLPRPRPRPFTWPRP	-0.236
RRIRPRPPRLPRPRPRPCAGPRP	0.122
RRIRGRPPRLPRPRPRPECQPRP	0.381
RRIRTRPPRLPRPRPRPKFHPRP	-0.327
RRIRQRPPRLPRPRPRPFWRPRP	-0.044
RRIRNRPPRLPRPRPRPSHFPRP	-0.647

Source: the supplement of paper PMC9112550, “Optimization of the antimicrobial peptide Bac7 by deep mutational scanning” (BMC Biology, 2022)
